Values belong to the binder of their own block, whether it stands above or below them. No end group written: not given here. *: point of attachment. Biotin = O=C1N[C@H]2[C@H](CS[C@H]2CCCCC(=O)*)N1
How the values were obtained:
[1] = target: T1, Recombinant nucleolin protein (murine, residues 309–644) (mouse, UniProt P09405 309-644); experiment: plate competition assay read by fluorescence of PE-labelled streptavidin
[2] = target: T2, Recombinant mouse NRP-1 protein (mouse, UniProt P97333 22-856); experiment: plate binding assay read by fluorescence of PE-labelled streptavidin
T2 sequence (looked up): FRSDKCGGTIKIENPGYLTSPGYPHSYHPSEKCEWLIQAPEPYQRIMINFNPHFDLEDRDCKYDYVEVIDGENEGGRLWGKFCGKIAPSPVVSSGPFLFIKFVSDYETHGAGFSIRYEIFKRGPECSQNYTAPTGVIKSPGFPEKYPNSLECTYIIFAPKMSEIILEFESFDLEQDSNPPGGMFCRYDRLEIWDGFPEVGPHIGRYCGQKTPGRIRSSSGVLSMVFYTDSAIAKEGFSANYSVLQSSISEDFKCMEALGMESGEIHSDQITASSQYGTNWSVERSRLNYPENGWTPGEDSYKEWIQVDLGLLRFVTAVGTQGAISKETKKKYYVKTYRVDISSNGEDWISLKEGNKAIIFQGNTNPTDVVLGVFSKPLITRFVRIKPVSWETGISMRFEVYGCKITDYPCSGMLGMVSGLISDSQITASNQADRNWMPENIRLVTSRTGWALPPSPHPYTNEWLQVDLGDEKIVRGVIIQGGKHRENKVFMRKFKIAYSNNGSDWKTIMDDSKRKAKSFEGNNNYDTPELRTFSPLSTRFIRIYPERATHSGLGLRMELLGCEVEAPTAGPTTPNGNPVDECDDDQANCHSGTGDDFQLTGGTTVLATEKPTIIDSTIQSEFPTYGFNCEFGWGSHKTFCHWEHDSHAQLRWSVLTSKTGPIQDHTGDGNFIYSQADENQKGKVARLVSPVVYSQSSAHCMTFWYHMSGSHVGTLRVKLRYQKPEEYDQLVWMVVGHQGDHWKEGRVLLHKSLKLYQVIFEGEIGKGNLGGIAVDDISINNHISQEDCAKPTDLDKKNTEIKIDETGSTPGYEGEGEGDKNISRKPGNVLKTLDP

[3] = target: T1, Recombinant nucleolin protein (murine, …); experiment: as above

T1 sequence (P09405 309-644): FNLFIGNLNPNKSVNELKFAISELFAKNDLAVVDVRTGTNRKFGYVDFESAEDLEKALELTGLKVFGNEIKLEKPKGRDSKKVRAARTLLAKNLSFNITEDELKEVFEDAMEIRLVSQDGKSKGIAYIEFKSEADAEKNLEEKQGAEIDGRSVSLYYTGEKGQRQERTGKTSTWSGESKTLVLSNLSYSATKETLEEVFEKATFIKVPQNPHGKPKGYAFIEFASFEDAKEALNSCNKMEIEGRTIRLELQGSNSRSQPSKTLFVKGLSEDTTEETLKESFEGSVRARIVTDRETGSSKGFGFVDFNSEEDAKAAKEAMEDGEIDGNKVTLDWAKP

binding result [1]: binds
B1: Dp1×3 (unlabelled) (peptide)
peptide: VSYKAIRVSYKAIRVSYKAIR

binding result [2]: binds
B2: biotin-labeled DC-targeting peptide Dp1 (peptide)
peptide: Biotin-VSYKAIR

binding result [3]: binds
B3: biotin-labeled Dp1×3 (peptide)
peptide: Biotin-VSYKAIRVSYKAIRVSYKAIR
